Reference: US20040176285A1, “Tip39 polypeptides” (priority 2001, published 2004)
“Also recorded” adds a separate entry of the source. Values belong to the molecule of their own block, whether it stands above or below them. Where a SMILES comes first, the peptide text is derived from it. Where no end group is shown, it is not given here.

How the values were obtained:
PTH1R [1] = molecular target: T1, PTH1R (Homo sapiens, UniProt Q03431); experiment: Ligand-stimulated cAMP accumulation in HKrk-B7 cells; format: cell-based; design: expressed in transfected cells; settings: HKrk-B7 cells
T1 sequence (Q03431 27-593): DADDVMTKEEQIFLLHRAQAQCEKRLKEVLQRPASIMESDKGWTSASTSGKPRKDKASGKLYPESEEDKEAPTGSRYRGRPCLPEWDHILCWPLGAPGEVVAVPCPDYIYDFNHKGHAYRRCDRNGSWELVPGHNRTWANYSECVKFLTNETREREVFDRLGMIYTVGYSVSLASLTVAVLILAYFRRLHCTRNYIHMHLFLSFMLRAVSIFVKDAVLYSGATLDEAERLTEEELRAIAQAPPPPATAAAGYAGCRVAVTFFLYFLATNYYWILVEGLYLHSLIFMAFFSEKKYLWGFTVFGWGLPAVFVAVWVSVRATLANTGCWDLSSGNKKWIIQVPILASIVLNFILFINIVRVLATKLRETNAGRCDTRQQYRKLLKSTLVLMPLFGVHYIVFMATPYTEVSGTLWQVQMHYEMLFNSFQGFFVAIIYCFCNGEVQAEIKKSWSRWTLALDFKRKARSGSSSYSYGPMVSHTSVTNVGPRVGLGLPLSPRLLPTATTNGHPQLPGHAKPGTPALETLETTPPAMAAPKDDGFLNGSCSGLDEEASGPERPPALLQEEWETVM
Protocol: DMEM, Trypsin/EDTA, and penicillin G/streptomycin and horse serum were from Gibco/BRL, Life Technologies, Gaithersburg, Md. LLC-PK, expressing the recombinant human PTH1R (HKrk-B7 cells) and SaOS-2 cells expressing the wild-type PTH1R endogenously were cultured in DMEM supplemented with 10% heat-inactivated fetal bovine serum, 100 U/ml penicillin, 100 μg/ml streptomycin, as previously described (Gardella, T. J., et al., J. Biol. Chem. 271:19888-19893 (1996); Fukayama, S., et al., Endocrinology 134:1851-1858 (1994)); both cell lines were maintained in a humidified atmosphere containing 95% air and 5% CO2. After seeding, medium was replaced daily, until cells were used for radioligand binding or cAMP accumulation assays.
Na^125I (specific activity: 2,000 Ci/mmol) was purchased from DuPont/NEN, Boston, Mass. Fetal bovine serum, 3-isobutyl-1-methyl-xanthine (IBMX), and BSA were from Sigma, St. Louis, Mo., and trifluoroacetic acid (TFA) was from Pierce, Rockford, Ill. Radiolabeled rPTH(1-34) and PTHrP(1-36) were prepared by the chloramine-T method, followed by HPLC purification using a 30-50% ACN/0.1% TFA gradient over 30 minutes; radioreceptor assays were performed in 24-well plates as previously described (Gardella, T. J., et al., J. Biol. Chem. 271:19888-19893 (1996); Fukayama, S. et al., Endocrinology 134:1851-1858 (1994)). In brief, each well (final volume 500 μl) contained binding buffer (BB; 50 mM Tris-HCl (pH 7.7), 100 mM NaCl, 5 mM KCl, 2 mM CaCl2, 5% heat-inactivated horse serum, and 0.5% heat-inactivated fetal bovine serum), the ^125I-labeled PTH or PTHrP analog (100,000 to 200,000 cpm) was incubated in the absence or presence of increasing concentrations of unlabeled peptides. After 4 h at 16° C., buffer was completely removed, the cells were rinsed with cold BB and lysed with 1 M NaOH. The entire lysate was counted for γ-irradiation. Specific binding was determined after subtracting radioactivity bound in the presence of maximal concentrations of unlabeled competing peptide (10^−6 M). Agonist-dependent stimulation of cAMP accumulation by HKrk-B7 and SaOS-2 cells (48-well plates; stimulation at room temperature for 45 minutes) and the subsequent measurement of cAMP by radioimmunoassay was performed as previously described (Gardella, T. J., et al., J. Biol. Chem. 271:19888-19893 (1996); Bergwitz, C., et al., Endocrinology 139:723-732 (1998)). Data were analyzed and graphically illustrated using the graph-pad prism software package.
The values for EC50 and Vmax (mean±SE) are derived from at least three independent experiments.

PTH1R [2] = molecular target: T1, PTH1R; experiment: Inhibition of agonist-stimulated cAMP accumulation in SaOS-2 cells; format: cell-based; design: expressed in transfected cells; settings: SaOS-2 cells (stated for both cell lines); agonists 0.15-0.3 nM
Text: FIG. 4A-4F. Inhibition of agonist-stimulated cAMP accumulation in HKrk-B7 cells (FIG. 4A-4C) or SaOS-2 cells (FIG. 4D-4F). […] Data are expressed as % of half-maximal cAMP accumulation and represent the results (mean±SE) of at least three independent experiments.
Na^125I (specific activity: 2,000 Ci/mmol) was purchased from DuPont/NEN, Boston, Mass. Fetal bovine serum, 3-isobutyl-1-methyl-xanthine (IBMX), and BSA were from Sigma, St. Louis, Mo., and trifluoroacetic acid (TFA) was from Pierce, Rockford, Ill. Radiolabeled rPTH(1-34) and PTHrP(1-36) were prepared by the chloramine-T method, followed by HPLC purification using a 30-50% ACN/0.1% TFA gradient over 30 minutes; radioreceptor assays were performed in 24-well plates as previously described (Gardella, T. J., et al., J. Biol. Chem. 271:19888-19893 (1996); Fukayama, S. et al., Endocrinology 134:1851-1858 (1994)). […] The entire lysate was counted for γ-irradiation. Specific binding was determined after subtracting radioactivity bound in the presence of maximal concentrations of unlabeled competing peptide (10^−6 M). […] Data were analyzed and graphically illustrated using the graph-pad prism software package.

human PTH2 receptor [3] = molecular target: T2, human PTH2 receptor (Homo sapiens, UniProt P49190); experiment: Inhibition of agonist-stimulated cAMP accumulation in hPR2-20 LLCPK1 cells; format: cell-based
T2 construct: expressed in transfected cells
Text: FIG. 8. […] Data are expressed as % of half-maximal cAMP accumulation and represent the results (mean±SE) of at least three independent experiments.

human PTH2 receptor [4] = molecular target: T2, human PTH2 receptor; experiment: Ligand-stimulated cAMP accumulation in hPR2-20 LLCPK1 cells; format: cell-based
[5] = molecular target: T3, human PTH/PTHrP receptor (PTH1R) (human, UniProt Q03431 27-593); experiment: radioreceptor competition on HKrk-B7 cells, 125I-rPTH(1-34) or 125I-PTHrP(1-36)
T3 construct: whole, on cells; HKrk-B7 cells about 10^6 receptors/cell; SaOS-2 about 30,000 receptors/cell; also called hPTH-1 receptor; PTH-1 receptor
T3 sequence (looked up): T1 sequence (Q03431 27-593)
Protocol: (§1) Na¹²⁵I (specific activity: 2,000 Ci/mmol) was purchased from DuPont/NEN, Boston, Mass. Fetal bovine serum, 3-isobutyl-1-methyl-xanthine (IBMX), and BSA were from Sigma, St. Louis, Mo., and trifluoroacetic acid (TFA) was from Pierce, Rockford, Ill. […] After 4 h at 16° C., buffer was completely removed, the cells were rinsed with cold BB and lysed with 1 M NaOH. The entire lysate was counted for γ-irradiation. Specific binding was determined after subtracting radioactivity bound in the presence of maximal concentrations of unlabeled competing peptide (10⁻⁶ M). Agonist-dependent stimulation of cAMP accumulation by HKrk-B7 and SaOS-2 cells (48-well plates; stimulation at room temperature for 45 minutes) and the subsequent measurement of cAMP by radioimmunoassay was performed as previously described (Gardella, T. J., et al., J. Biol. Chem. 271:19888-19893 (1996); Bergwitz, C., et al., Endocrinology 139:723-732 (1998)). Data were analyzed and graphically illustrated using the graph-pad prism software package.

[6] = molecular target: T3, human PTH/PTHrP receptor (PTH1R); experiment: radioreceptor competition on HKrk-B7 cells; tracer 125I-rat [Nle8,21,Tyr34]PTH(1-34)amide
Protocol: as §1

[7] = molecular target: T3, human PTH/PTHrP receptor (PTH1R); experiment: radioreceptor competition on HKrk-B7 cells; tracer 125I-[Tyr36]PTHrP(1-36)amide
Protocol: as §1

[8] = molecular target: T3, human PTH/PTHrP receptor (PTH1R); experiment: radioreceptor competition on HKrk-B7 cells; either tracer
Protocol: (§2) Specific binding was determined after subtracting radioactivity bound in the presence of maximal concentrations of unlabeled competing peptide (10⁻⁶ M). Agonist-dependent stimulation of cAMP accumulation by HKrk-B7 and SaOS-2 cells (48-well plates; stimulation at room temperature for 45 minutes) and the subsequent measurement of cAMP by radioimmunoassay was performed as previously described (Gardella, T. J., et al., J. Biol. Chem. 271:19888-19893 (1996); Bergwitz, C., et al., Endocrinology 139:723-732 (1998)). Data were analyzed and graphically illustrated using the graph-pad prism software package.

[9] = molecular target: T3, human PTH/PTHrP receptor (PTH1R); experiment: radioreceptor competition on HKrk-B7 cells
Protocol: as §2

T2 sequence (P49190 25-550): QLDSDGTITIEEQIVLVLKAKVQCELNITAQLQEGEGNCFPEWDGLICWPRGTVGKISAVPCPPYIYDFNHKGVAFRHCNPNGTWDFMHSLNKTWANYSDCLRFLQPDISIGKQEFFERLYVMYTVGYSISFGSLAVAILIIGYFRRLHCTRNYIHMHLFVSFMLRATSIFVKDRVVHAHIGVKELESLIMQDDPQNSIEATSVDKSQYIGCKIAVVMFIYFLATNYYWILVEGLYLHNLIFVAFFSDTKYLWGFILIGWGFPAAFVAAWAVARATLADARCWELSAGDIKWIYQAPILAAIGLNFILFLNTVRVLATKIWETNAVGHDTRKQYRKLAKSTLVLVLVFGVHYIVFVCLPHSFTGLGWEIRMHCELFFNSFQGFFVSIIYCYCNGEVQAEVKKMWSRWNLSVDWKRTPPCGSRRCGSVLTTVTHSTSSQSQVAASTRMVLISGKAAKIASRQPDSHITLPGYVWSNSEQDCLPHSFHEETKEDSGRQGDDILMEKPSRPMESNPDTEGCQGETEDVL

higher antagonist concentration required against human TIP39 than against PTH-(1-34) (human PTH2 receptor [3]; 1 nM of either agonist): approximately 14 fold | antagonism at the PTH2 receptor (in words) (human PTH2 receptor [3]; P2R LLCPK1 cells, FIG. 8): antagonist of the PTH2 receptor
Molecule: CSCC[C@H](NC(=O)[C@H](Cc1ccc(O)cc1)NC(=O)[C@H](CO)NC(=O)[C@H](CC(N)=O)NC(=O)[C@H](CC(C)C)NC(=O)[C@H](Cc1c[nH]c2ccccc12)NC(=O)[C@H](Cc1c[nH]cn1)NC(=O)[C@H](CCCNC(=N)N)NC(=O)[C@H](CCCNC(=N)N)NC(=O)[C@H](CCC(=O)O)NC(=O)[C@H](CC(C)C)NC(=O)[C@H](C)NC(=O)[C@H](C)NC(=O)[C@H](CC(C)C)NC(=O)[C@H](CC(C)C)NC(=O)[C@H](CCCNC(=N)N)NC(=O)[C@H](C)NC(=O)[C@H](CCCNC(=N)N)NC(=O)[C@H](CCC(=O)O)NC(=O)[C@H](CCCNC(=N)N)NC(=O)[C@H](Cc1ccccc1)NC(=O)[C@H](C)N)C(=O)N[C@@H](Cc1c[nH]cn1)C(=O)N[C@@H](CCCCN)C(=O)N[C@@H](CC(C)C)C(=O)N[C@@H](CC(C)C)C(=O)N[C@H](C(=O)N[C@@H](CC(C)C)C(=O)N[C@@H](CC(=O)O)C(=O)N[C@@H](C)C(=O)N1CCC[C@H]1C(N)=O)C(C)C [TIP(9-39)] (H-AFRERARLLAALERRHWLNSYMHKLLVLDAP-NH2)
stimulation of cAMP accumulation at the PTH1R (in words) (PTH1R [1]): lack of second messenger formation; also recorded: failed to stimulate cAMP accumulation | inhibition of agonist actions (in words) (PTH1R [2]): inhibited the actions of the three agonists

maximum cAMP accumulation (human PTH2 receptor [4]): 133.7±3.9 pmol/well
Molecule: CSCC[C@H](NC(=O)[C@H](Cc1ccc(O)cc1)NC(=O)[C@H](CO)NC(=O)[C@H](CC(=O)O)NC(=O)[C@H](CC(C)C)NC(=O)[C@H](Cc1c[nH]c2ccccc12)NC(=O)[C@H](CCC(=O)O)NC(=O)[C@H](CCCNC(=N)N)NC(=O)[C@H](CCCNC(=N)N)NC(=O)[C@H](CCC(=O)O)NC(=O)[C@H](CC(C)C)NC(=O)[C@H](C)NC(=O)[C@H](C)NC(=O)[C@H](CC(C)C)NC(=O)[C@H](CC(C)C)NC(=O)[C@H](CCCNC(=N)N)NC(=O)[C@H](C)NC(=O)[C@H](CCCNC(=N)N)NC(=O)[C@H](CCC(=O)O)NC(=O)[C@H](CCCNC(=N)N)NC(=O)[C@H](Cc1ccccc1)NC(=O)[C@H](C)NC(=O)[C@H](C)NC(=O)[C@H](CC(=O)O)NC(=O)[C@H](CC(=O)O)NC(=O)[C@H](C)NC(=O)[C@H](CC(C)C)NC(=O)[C@H](C)NC(=O)[C@H](CC(C)C)NC(=O)[C@@H](N)CO)C(=O)N[C@@H](CCC(N)=O)C(=O)N[C@@H](CCCCN)C(=O)N[C@@H](CC(C)C)C(=O)N[C@@H](CC(C)C)C(=O)N[C@@H](CC(C)C)C(=O)N[C@@H](CC(C)C)C(=O)N[C@@H](CC(=O)O)C(=O)N[C@@H](C)C(=O)N1CCC[C@H]1C(N)=O [mouse TIP39] (H-SLALADDAAFRERARLLAALERREWLDSYMQKLLLLDAP-NH2)

binding result [5]: no binding
Molecule: RHWLNSYMHKLLVLDAP [TIP(23-39)]

IC50 [6]: 96 nM | IC50 [7]: 68 nM | fold improvement in apparent binding affinity relative to TIP(1-39) [8]: ≤ 6 fold | fold higher apparent binding affinity in comparison to the parent peptide TIP(1-39) [9]: ~3 fold
Molecule: ALADDAAFRERARLLAALERRHWLNSYMHKLLVLDAP (not fully specified (C-terminus)) [TIP(3-39)]

binding result [5]: no binding
Molecule: ALERRHWLNSYMHKLLVLDAP [TIP(19-39)]
